Results taken from article PMC6449974.
Like-named read-outs stand apart in the source and are kept apart here.

Tests used:
[1] = molecular target: cross-linked self-assembled CA tubes (CA A14C/E45C co-assembled with CA K158C-AF488) (HIV-1); assay: TIRF fluorescence microscopy binding assay; cross-linked CA tubes held on the cover slip by an anti-p24 antibody; CypA 1-50 uM (1 uM AF647-CypA plus unlabelled CypA) flowed in; 50 mM Tris pH 8, 150 mM NaCl; equilibrium binding model on the CypA:CA molar ratio
[2] = molecular target: biotinylated CA K158C (unassembled HIV-1 CA) (HIV-1); assay: SPR; Biacore S200; biotinylated CA K158C or biotinylated CA hexamer immobilised on streptavidin-modified CM5 chip; CypA injected at 1.1-72.8 uM; 10 mM HEPES pH 8, 0.005% Tween 20, 2 mM EDTA, 150 mM NaCl; equilibrium analysis, single experiments
[3] = molecular target: biotinylated cross-linked CA hexamer (CA A14C/E45C/W184A/M185A) (HIV-1); assay: as above
[4] = molecular target: native HIV-1 capsid (wild type CA lattice of authentic viral cores) (HIV-1 (pNL4.3-iGFP-ΔEnv and psPAX2)); assay: TIRF fluorescence microscopy binding assay
[5] = molecular target: native HIV-1 capsid (wild type CA lattice of authentic viral cores) (HIV-1 (pNL4.3-iGFP-ΔEnv and psPAX2)); assay: TIRF fluorescence microscopy binding assay; remark: listed apart in the source

| Substance | Kd [1] [µM] | stoichiometry N (molar ratio of CypA:CA when saturated) [1] | Kd [2] [µM] | Kd [3] [µM] | Kd [4] [µM] | Kd [5] [µM] | stoichiometry N ([5]; scale: CypA loops occupied at saturation per capsid) | stoichiometry N ([5]; scale: CypA molecules bound per capsid at saturation) |
| --- | --- | --- | --- | --- | --- | --- | --- | --- |
| CypA K30D (enzyme) | 17 | 0.39 | 37.9 | 35.7 | – | – | – | – |
| CypA P29K (enzyme) | 16.4 | 0.32 | 20.6 | 21 | – | – | – | – |
| CypA A25D (enzyme) | 17.2 | 0.39 | 22.6 | 20.8 | 8.7 | 11.2 | 877 | 688 |
| CypA K27D (enzyme) | 17.7 | 0.24 | 28.5 | 21.7 | – | – | – | – |
